No end group written: not given here.
Experiments:
FhuA (E. coli), P06971 [1] = target: T1, FhuA (E. coli), P06971; experiment: in-gel reconstitution, CN-PAGE titration of NSPr, Boltzmann fit
T1 chain: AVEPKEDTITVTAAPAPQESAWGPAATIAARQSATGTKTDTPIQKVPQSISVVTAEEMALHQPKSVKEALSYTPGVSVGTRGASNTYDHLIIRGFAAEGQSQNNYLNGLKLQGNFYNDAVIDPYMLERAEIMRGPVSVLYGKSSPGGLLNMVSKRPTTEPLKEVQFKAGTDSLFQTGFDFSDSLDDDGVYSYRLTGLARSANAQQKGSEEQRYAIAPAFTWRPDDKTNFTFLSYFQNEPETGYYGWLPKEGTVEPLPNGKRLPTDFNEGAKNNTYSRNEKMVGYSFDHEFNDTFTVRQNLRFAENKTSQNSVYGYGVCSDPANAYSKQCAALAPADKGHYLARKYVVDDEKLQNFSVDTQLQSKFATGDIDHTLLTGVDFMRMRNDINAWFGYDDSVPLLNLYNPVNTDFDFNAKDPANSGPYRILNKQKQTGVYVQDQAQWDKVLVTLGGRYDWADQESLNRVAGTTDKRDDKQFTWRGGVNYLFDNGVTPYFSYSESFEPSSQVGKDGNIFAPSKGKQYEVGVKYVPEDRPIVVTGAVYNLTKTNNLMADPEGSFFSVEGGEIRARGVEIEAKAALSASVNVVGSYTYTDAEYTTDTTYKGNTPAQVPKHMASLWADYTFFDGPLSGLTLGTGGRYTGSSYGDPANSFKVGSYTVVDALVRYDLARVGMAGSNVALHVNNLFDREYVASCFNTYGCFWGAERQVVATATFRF

MalFGK2, P02916 [2] = experiment: as above
SecYEG complex, P0AGA2 = target: T2, SecYEG complex, P0AGA2; experiment: as above
T2 chain 1: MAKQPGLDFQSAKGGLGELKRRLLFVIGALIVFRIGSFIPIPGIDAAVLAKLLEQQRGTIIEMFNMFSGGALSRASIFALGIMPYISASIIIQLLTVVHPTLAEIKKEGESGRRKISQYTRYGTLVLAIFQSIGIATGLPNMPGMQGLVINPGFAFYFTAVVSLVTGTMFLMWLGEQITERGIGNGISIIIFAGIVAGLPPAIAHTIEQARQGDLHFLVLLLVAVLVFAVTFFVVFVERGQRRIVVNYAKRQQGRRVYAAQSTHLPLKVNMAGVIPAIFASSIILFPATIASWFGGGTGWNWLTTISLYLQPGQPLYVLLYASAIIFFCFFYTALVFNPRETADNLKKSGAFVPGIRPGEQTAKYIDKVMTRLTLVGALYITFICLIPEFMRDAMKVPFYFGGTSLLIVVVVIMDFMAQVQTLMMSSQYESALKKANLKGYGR
T2 chain 2: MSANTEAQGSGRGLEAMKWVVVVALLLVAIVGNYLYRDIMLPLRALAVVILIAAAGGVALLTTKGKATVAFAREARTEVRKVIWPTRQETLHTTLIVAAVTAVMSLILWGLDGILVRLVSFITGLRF
T2 chain 3: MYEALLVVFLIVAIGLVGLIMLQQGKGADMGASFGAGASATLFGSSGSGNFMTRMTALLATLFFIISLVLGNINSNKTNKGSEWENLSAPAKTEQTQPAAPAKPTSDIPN

[3] = target: T3, trimeric OmpF porin (E. coli), P02931; experiment: as above
T3 chain: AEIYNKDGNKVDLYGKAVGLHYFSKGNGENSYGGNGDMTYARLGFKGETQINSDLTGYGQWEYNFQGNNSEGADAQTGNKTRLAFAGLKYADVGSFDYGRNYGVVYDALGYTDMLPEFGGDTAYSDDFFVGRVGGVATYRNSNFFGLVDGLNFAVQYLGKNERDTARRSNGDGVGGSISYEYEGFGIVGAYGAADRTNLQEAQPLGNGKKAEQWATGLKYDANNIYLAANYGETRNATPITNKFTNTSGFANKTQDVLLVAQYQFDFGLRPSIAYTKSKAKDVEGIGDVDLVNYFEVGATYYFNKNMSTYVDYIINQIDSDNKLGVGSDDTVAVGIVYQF

MalFGK2, P02916 [4] = experiment: BN-PAGE of MalFGK2-NSPr after 1 hr of incubation at 30 °C
MalFGK2, P02916 [5] = experiment: BN-PAGE of MalFGK2-NSPr after 2 hr of incubation at 30 °C
MalFGK2, P02916 [6] = experiment: BN-PAGE of MalFGK2-NSPr after 3 hr of incubation at 30 °C
MalFGK2, P02916 [7] = experiment: BN-PAGE of MalFGK2-NSPr, time 0 hr of incubation at 30 °C
MalFGK2, P02916 [8] = experiment: SDS-PAGE densitometry of purified peptidisc against an NSPr standard curve
[9] = target: photosynthetic bacterial reaction center (BRC) from Rhodobacter sphaeroides (Rhodobacter sphaeroides), P0C0Y9; experiment: as above
FhuA (E. coli), P06971 [10] = target: T1, FhuA (E. coli), P06971; experiment: density of the FhuA band of FIG. 19B plotted against log(mol NSPr/mol FhuA); half-maximal reconstitution ratio RR50
FhuA (E. coli), P06971 [11] = target: T1, FhuA (E. coli), P06971; experiment: western blot with streptavidin-Alexa 680 of peptidisc made with NSPrbio, against a standard curve
membrane proteins = experiment: on-gel reconstitution, competitor equimolar NSPr-FAM; 0 no, 100 full competition

MalFGK2, P02916, sequence (P02916 whole entry, chain 1 of 3): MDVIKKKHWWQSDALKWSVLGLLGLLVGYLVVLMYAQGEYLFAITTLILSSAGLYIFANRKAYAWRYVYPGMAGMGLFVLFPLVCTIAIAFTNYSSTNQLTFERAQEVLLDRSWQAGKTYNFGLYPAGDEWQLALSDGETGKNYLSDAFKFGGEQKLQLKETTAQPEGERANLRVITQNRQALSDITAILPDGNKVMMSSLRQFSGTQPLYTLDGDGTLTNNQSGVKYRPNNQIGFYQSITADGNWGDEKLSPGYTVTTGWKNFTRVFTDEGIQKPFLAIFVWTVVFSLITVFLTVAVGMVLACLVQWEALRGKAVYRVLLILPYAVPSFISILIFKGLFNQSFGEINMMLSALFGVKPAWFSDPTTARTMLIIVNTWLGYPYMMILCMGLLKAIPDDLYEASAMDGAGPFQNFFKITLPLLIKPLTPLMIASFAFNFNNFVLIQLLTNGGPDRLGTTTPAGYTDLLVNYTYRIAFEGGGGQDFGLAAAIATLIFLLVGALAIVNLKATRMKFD
MalFGK2, P02916, sequence (P68183 whole entry, chain 2 of 3, further chain): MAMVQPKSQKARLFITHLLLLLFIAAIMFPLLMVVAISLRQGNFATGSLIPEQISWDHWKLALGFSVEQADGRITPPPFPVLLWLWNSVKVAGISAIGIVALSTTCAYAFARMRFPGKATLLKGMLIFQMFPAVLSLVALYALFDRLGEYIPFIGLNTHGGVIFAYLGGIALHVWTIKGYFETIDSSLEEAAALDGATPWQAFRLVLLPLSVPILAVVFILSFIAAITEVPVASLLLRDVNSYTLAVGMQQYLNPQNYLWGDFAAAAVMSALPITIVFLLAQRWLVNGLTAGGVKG
MalFGK2, P02916, sequence (P68187 whole entry, chain 3 of 3, further chain): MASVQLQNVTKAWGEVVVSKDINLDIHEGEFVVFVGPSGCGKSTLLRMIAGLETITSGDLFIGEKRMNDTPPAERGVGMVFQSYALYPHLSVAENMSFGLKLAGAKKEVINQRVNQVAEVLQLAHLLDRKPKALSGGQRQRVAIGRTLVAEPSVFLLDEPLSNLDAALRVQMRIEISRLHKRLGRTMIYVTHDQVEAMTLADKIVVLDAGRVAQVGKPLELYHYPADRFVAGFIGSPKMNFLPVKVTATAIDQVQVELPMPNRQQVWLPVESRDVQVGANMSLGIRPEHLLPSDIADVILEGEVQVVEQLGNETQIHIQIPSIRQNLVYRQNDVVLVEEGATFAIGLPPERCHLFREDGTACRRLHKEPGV

Binder: FAEKFKEAVKDYFAKFWDPAAEKLKEAVKDYFAKLWD (modifications not checked) [NSPr]
- RR50 (half-maximal reconstitution molar ratio) (mol NSPr/mol protein) (FhuA (E. coli), P06971 [1]): 20
- RR50 (half-maximal reconstitution molar ratio) (mol NSPr/mol protein) (MalFGK2, P02916 [2]): 20
- RR50 (half-maximal reconstitution molar ratio) (mol NSPr/mol protein) (SecYEG complex, P0AGA2): 20
- RR50 (half-maximal reconstitution molar ratio) (mol NSPr/mol protein) [3]: 20
- (%) of the MalFGK2 Peptidisc band (MalFGK2, P02916 [4]): 89%
- (%) of the MalFGK2 Peptidisc band (MalFGK2, P02916 [5]): 86%
- (%) of the MalFGK2 Peptidisc band (MalFGK2, P02916 [6]): 84%
- (%) of the MalFGK2 Peptidisc band (MalFGK2, P02916 [7]): 100%
- Measured NSPr stoichiometry (NSPr/disc) (MalFGK2, P02916 [8]): 10 NSPr/disc
- Measured NSPr stoichiometry (NSPr/disc) [9]: 9 NSPr/disc
- EC50 (read off the curve) (mol NSPr/mol FhuA) (FhuA (E. coli), P06971 [10]): 20

Binder: FAEKFKEAVKDYFAKFWDPAAEKLKEAVKDYFAKLWD (not fully specified (N-terminus)) [NSPr-biotin]
- Measured NSPr stoichiometry (NSPr/disc) (FhuA (E. coli), P06971 [11]): 10 NSPr/disc

Binder: DWLKAFYDKVAEKLKEAAPDWFKAFYDKVAEKFKEAF (not fully specified (N-terminus, C-terminus)) [Ac-NSP-NH2]
- Competition peptide (% NSPr-FAM) (membrane proteins): 10%
